How the values were obtained:
cyno BCMA-Fc = molecular target: T1, cyno BCMA-Fc (cynomolgus monkey, UniProt Q02223 1-54 (human entry)); assay: ELISA, coated cynoBCMA-Fc
T1 construct: Custom protein production; also called cynomolgus BCMA-Fc; not shown: Fc part not described

human BCMA-Fc [1] = molecular target: T2, human BCMA-Fc (human, UniProt Q02223 1-54); assay: SPR Biacore, antibody captured, 25 C
T2 construct: Bought from R&D Systems; also called huBCMA-Fc; not shown: Fc part not described
T2 sequence: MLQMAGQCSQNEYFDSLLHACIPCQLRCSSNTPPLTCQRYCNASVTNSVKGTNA
Protocol: Anti-Fab or anti-Fc polyclonal antibodies were immobilized onto a CM5 chip (GE Life Sciences) using amine coupling chemistry (from Amine Coupling Kit, GE Life Sciences). The immobilization steps were carried out at a flow rate of 25 μL/min in 1×HBS-EP+ buffer (GE Life Sciences; 10× Stock diluted before use). The sensor surfaces were activated for 7 min with a mixture of NHS (0.05 M) and EDC (0.2 M). The anti-Fab or anti-Fc antibodies were injected over all 4 flow cells at a concentration of 25 μg/ml in 10 mM sodium acetate, pH 4.5, for 7 min. Ethanolamine (1 M, pH 8.5) was injected for 7 min to block any remaining activated groups.
Off-rate and kinetic binding experiments were performed at 25° C. using 1×HBS-EP+ buffer. […] After capturing ligand (antibody) on the anti-Fab or anti-Fc surface, the analyte (human BCMA-Fc, cyno BCMA-Fc, or human BCMA from R&D Systems, custom protein production, or Sigma Aldrich, respectively) was bound for 180 seconds, followed by a 600 second dissociation phase at a flow rate of 50 μL/min. Between each ligand capture and analyte binding cycle, regeneration was carried out using 2 injections of 10 mM glycine pH 2.0 for 30 seconds at 30 μL/min, followed by a 30 second buffer wash step.
The data was fit with the Biacore T200 Evaluation software, using a 1-1 Langmuir binding model. KD (affinity, nM) was determined as a ratio of the kinetic rate constants calculated from the fits of the association and dissociation phases.

human BCMA-Fc [2] = molecular target: T2, human BCMA-Fc; assay: ELISA, coated huBCMA-Fc
cynomolgus BCMA on cells = cynomolgus BCMA on cells (cynomolgus monkey, UniProt Q02223 1-184 (human entry)); assay: FACS, 293T-cynoBCMA cells
Protocol: (§1) Variants for which sufficient protein was purified in secondary screening were tested in a fluorescence-activated cell sorting (FACS) cell-binding assay. […] 6-12 point dilutions of anti-BCMA variants starting from concentrations of about 100-200 nM antibody were dispensed into each well using a BioMekFX (Beckman Coulter). Cells were then incubated on ice for 1 hr, washed with FACS buffer and incubated for 1 hr on ice with […] FACS buffer containing 2.5 μg/ml Alexa647-conjugated Goat Anti-Human IgG dispensed using BioMekFX (Beckman Coulter). Cells were then washed 2× with FACS buffer and fixed for 10 minutes in […] PBS with 2% paraformaldehyde (PFA) prior to fluorescence detection. Samples were acquired using a Beckton Dickinson LSRII FACS. Geometric Mean Fluorescence Intensity of BCMA antibody binding was analyzed using FlowJo® software (Tree Star, Inc.).

human BCMA on cells = molecular target: T3, human BCMA on cells (human, UniProt Q02223 1-184); assay: FACS, NCI-H929 cells
T3 construct: also called hBCMA; BCMA on NCI-H929, ARP-1, OPM-2, U266B1, MM.1S, RPMI-8226 cells
T3 sequence: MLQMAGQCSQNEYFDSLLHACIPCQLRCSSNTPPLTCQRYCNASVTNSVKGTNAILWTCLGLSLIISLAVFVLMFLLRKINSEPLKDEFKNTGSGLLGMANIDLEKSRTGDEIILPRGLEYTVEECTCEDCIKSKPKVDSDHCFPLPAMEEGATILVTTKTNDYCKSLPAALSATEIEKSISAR
Protocol: as §1

Sequence of cynomolgus BCMA on cells (Q02223 other isoform, or with tags, fused parts or gaps): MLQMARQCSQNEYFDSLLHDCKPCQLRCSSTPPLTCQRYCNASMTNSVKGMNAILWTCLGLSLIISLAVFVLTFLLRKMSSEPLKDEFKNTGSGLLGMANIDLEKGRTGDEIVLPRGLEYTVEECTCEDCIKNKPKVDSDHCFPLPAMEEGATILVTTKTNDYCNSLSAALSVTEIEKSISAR

B1: 2290-A02 (antibody, V domains shown)
VH: EVQLVESGGGLVQPGGSLRLSCAASGFNISTRWIHWVRQAPGKGLEWVGVITPSAGYTHYADSVKGRFTISAGTSKNTAYLQMNSLRAEDTAVYYCARDLGSRYWVGVFDYWGQGTLVTVSS
VL: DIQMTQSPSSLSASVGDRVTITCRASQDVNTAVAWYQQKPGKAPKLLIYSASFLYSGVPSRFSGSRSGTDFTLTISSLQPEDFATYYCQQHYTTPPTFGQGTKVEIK
notes: also called Antibody 22
Bmax (cyno BCMA-Fc): 4.47e+06
EC50 (cyno BCMA-Fc): 0.4 nM
Kd (human BCMA-Fc [1]): 0.567 nM
koff (human BCMA-Fc [1]): 0.000131 s⁻¹
kon (human BCMA-Fc [1]): 231000 M⁻¹ s⁻¹
Bmax (human BCMA-Fc [2]): 4.87e+06
EC50 (human BCMA-Fc [2]): 0.4 nM
Bmax (cynomolgus BCMA on cells): 70300 MFI
Kd (cynomolgus BCMA on cells): 2.3 nM
Bmax (human BCMA on cells): 33600 MFI
Kd (human BCMA on cells): 4.9 nM

B2: 2290-D05 (antibody, V domains shown)
VH: EVQLVESGGGLVQPGGSLRLSCAASGFNIASRWIHWVRQAPGKGLEWVGVITPSAGYTYYADSVKGRFTISADTSKNTAYLQMNSLRAEDTAVYYCARDLGYGYWVGFSDYWGQGTLVTVSS
VL: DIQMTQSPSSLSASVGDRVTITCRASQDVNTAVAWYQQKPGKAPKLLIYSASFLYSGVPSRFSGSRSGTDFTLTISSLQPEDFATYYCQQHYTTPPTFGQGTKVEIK
notes: also called Antibody 20
Bmax (cyno BCMA-Fc): 3.61e+06
EC50 (cyno BCMA-Fc): 0.2 nM
Kd (human BCMA-Fc [1]): 0.937 nM
koff (human BCMA-Fc [1]): 0.000446 s⁻¹
kon (human BCMA-Fc [1]): 476000 M⁻¹ s⁻¹
Bmax (human BCMA-Fc [2]): 3.94e+06
EC50 (human BCMA-Fc [2]): 0.3 nM
Bmax (cynomolgus BCMA on cells): 57600 MFI
Kd (cynomolgus BCMA on cells): 1.7 nM
Bmax (human BCMA on cells): 21800 MFI
Kd (human BCMA on cells): 4.6 nM

B3: 2290-C07 (antibody, V domains shown)
VH: EVQLVESGGGLVQPGGSLRLSCAASGFNITYDWIHWVRQAPGKGLEWVGVITPFDGYTYYADSVKGHFTISADTSKNTAYLQMNSLRAEDTAVYYCARDMGVGYWVGFSDYWGQGTLVTVSS
VL: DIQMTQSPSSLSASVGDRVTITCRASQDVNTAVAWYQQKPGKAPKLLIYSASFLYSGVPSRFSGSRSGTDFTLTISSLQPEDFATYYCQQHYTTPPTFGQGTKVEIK
notes: also called Antibody 19
Bmax (cyno BCMA-Fc): 3.81e+06
EC50 (cyno BCMA-Fc): 0.2 nM
Kd (human BCMA-Fc [1]): 0.612 nM
koff (human BCMA-Fc [1]): 0.000221 s⁻¹
kon (human BCMA-Fc [1]): 361000 M⁻¹ s⁻¹
Bmax (human BCMA-Fc [2]): 4.12e+06
EC50 (human BCMA-Fc [2]): 0.2 nM
Bmax (cynomolgus BCMA on cells): 78100 MFI
Kd (cynomolgus BCMA on cells): 6.7 nM

B4: 2290-D02 (antibody, V domains shown)
VH: EVQLVESGGGLVQPGGSLRLSCAASGFNISSYWIHWVRQAPGKGLEWMGVITPAAGYTYYADSVKGRFTISADTSKNTAYLQMNSLRAEDTAVYYCARDLGHRYWVGVFDYWGQGTLVTVSS
VL: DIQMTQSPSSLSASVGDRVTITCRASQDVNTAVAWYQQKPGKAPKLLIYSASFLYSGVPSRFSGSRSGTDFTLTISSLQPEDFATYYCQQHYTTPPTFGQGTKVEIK
notes: also called Antibody 18
Bmax (cyno BCMA-Fc): 3.91e+06
EC50 (cyno BCMA-Fc): 0.2 nM
Kd (human BCMA-Fc [1]): 0.949 nM
koff (human BCMA-Fc [1]): 0.000277 s⁻¹
kon (human BCMA-Fc [1]): 292000 M⁻¹ s⁻¹
Bmax (human BCMA-Fc [2]): 4.54e+06
EC50 (human BCMA-Fc [2]): 0.3 nM
Bmax (cynomolgus BCMA on cells): 75800 MFI
Kd (cynomolgus BCMA on cells): 3.5 nM
Bmax (human BCMA on cells): 33600 MFI
Kd (human BCMA on cells): 19.2 nM

B5: 2290-G01 (antibody, V domains shown)
VH: EVQLVESGGGLVQPGGSLRLSCAASGFNISPYWIHWVRQAPGKGLEWVGVITPPSGFTYYADSVKGRFTISADTSKNTAYLQVNSLRAEDTAVYYCARDLGVGYWVGFSDYWGQGTLVTVSS
VL: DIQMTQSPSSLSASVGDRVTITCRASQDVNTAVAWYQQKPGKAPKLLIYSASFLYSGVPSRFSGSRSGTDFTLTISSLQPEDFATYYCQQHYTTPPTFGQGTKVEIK
notes: also called Antibody 17
Bmax (cyno BCMA-Fc): 4.6e+06
EC50 (cyno BCMA-Fc): 0.3 nM
Kd (human BCMA-Fc [1]): 0.445 nM
koff (human BCMA-Fc [1]): 0.000318 s⁻¹
kon (human BCMA-Fc [1]): 714000 M⁻¹ s⁻¹
Bmax (human BCMA-Fc [2]): 4.83e+06
EC50 (human BCMA-Fc [2]): 0.3 nM
Bmax (cynomolgus BCMA on cells): 77100 MFI
Kd (cynomolgus BCMA on cells): 4.7 nM

B6: 2290-C08 (antibody, V domains shown)
VH: EVQLVESGGGLVQPGGSLRLSCAASGFNIQPYWIHWVRQAPGKGLEWVGVITPPSGYTYYADSVKGRFTISADTSKNTAYLQMNSLRAEDTAVYYCARDWGVGYWVGFSDYWGQGTLVTVSS
VL: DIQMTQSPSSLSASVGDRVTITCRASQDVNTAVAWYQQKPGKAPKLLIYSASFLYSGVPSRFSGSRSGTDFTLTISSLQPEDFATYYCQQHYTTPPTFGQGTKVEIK
notes: also called Antibody 21
Bmax (cyno BCMA-Fc): 4.14e+06
EC50 (cyno BCMA-Fc): 0.2 nM
Kd (human BCMA-Fc [1]): 0.378 nM
koff (human BCMA-Fc [1]): 0.000252 s⁻¹
kon (human BCMA-Fc [1]): 666000 M⁻¹ s⁻¹
Bmax (human BCMA-Fc [2]): 4.33e+06
EC50 (human BCMA-Fc [2]): 0.3 nM
Bmax (cynomolgus BCMA on cells): 71000 MFI
Kd (cynomolgus BCMA on cells): 2.3 nM
Bmax (human BCMA on cells): 37800 MFI
Kd (human BCMA on cells): 11 nM

B7: 2137-A05 (antibody, V domains shown)
VH: EVQLVESGGGLVQPGGSLRLSCAASGFNINNSYIHWVRQAPGKGLEWVGWIYPYSGYTNYADSVKGRFTISADTSKNTAYLQMNSLRAEDTAVYYCARDYGPWYGTGVLDYWGQGTLVTVSS
VL: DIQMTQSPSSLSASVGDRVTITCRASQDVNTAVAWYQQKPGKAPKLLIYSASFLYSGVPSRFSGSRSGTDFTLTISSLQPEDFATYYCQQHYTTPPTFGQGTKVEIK
notes: also called Antibody 14
Bmax (cyno BCMA-Fc): 2.2e+06
EC50 (cyno BCMA-Fc): 419 nM
Kd (human BCMA-Fc [1]): 2.36 nM
koff (human BCMA-Fc [1]): 0.00332 s⁻¹
kon (human BCMA-Fc [1]): 1.41e+06 M⁻¹ s⁻¹
Bmax (human BCMA-Fc [2]): 3.3e+06
EC50 (human BCMA-Fc [2]): 0.52 nM
Bmax (cynomolgus BCMA on cells): 1910 MFI
Kd (cynomolgus BCMA on cells): 18.3 nM
Bmax (human BCMA on cells): 2690 MFI
Kd (human BCMA on cells): 10 nM
